The nature of this data set: yeast display, Sf9 membrane polyspecificity reagent, FACS + sequencing; frameworks hold sequencing errors. The method in brief: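 Nanobodies came from a synthetic yeast display library in Saccharomyces cerevisiae BJ5465, induced with galactose for 36–48 hours and stained for 1 hour at 4 °C with 10% biotinylated, detergent-solubilized Sf9 membrane reagent. Cells were enriched on streptavidin microbeads and then FACS-sorted, with low and high (top ~1%) gates set on anti-HA fluorescence for expression and streptavidin fluorescence for reagent binding. Each polyreactivity label reflects the gate a clone came from. Genes were amplified by colony PCR, sequenced by MiSeq 2 × 250 and filtered by CDR length.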
As for “QVQLVESGGGLVQEGGSLRLSCAASGRIFATYVMGWYRQAPGKERELVAAISRRGSSTYYADSVKGRFTISRDNAKNTVYLQMNSLKPEDTAVYYCAAVHKVGWSRHYDYWGLGTQVTVSS”, the “polyreactivity (PSR sort gate)” value is “high polyreactivity”.
For “QVQLVESGGGLVQAGGSLRLSCAASGFIFGVYAMGWYRQAPGNERELVAAISGSGGTTYYADSVKGRFTISRDNAKNTVYLQMNSQKPEDTAVYYCNAAYRVRYIVNYDYWGQGTQVTVSS”, the “polyreactivity (PSR sort gate)” value is “low polyreactivity”.
Under “QLQLVESGAGLVQAGGSLRLSCAASGRIFAYNTMGRYRQAHGKERELVAVITSGGSTNYADYVKGRFTISRDNAKNTVYLQMNSLKPEDTAVYYCAKRPYGGSGGYRYDYWGQGTQVTVSS” stands “high polyreactivity”; under “QVQLVESGGGLVQAGGSLRLSSAASGSIFAWYGMGWYRQAPGKERELVAAISTAGSTNYADSVKGRFTISRDNAKNTVYLQMNSLKPEDTAVYYCAKKSSWYYPERFDYWGQGTQVTVSS”, “low polyreactivity”; under “QVQLVESGGGLVQAGGSLRLSCAASGITFYVYAMGWYRQAPGKERELVAANSSGGGSTYYADSVKGRFTISRDNAKNTVYLQMNSLKPEDTAVYYCNKLFPGTYDGAHGYWGQGTQVTVSS”, “low polyreactivity”.
Under “QVQLLESGGGLVQPGGSLRLSCAASGSIFGLNAMGLYRQEPGKETELVAAISGGSTNYADSVKGRFTISRDNAKNTVYFQMISLKPEDTAVYYCAAPRTKYLSNYGFWGEGTQVTVSS” stands “high polyreactivity”; under “QVQLVESGGGLVQAGGSLRLSCAASGRTFFVYAMGWYRQAPGKVRELVAAISNTGGRTYYADSVKGRFTISRDNAKNTVYLQMNSLKPEDTAVYYCAAPYSGPYRSYEYYWGQGTQVTVSS”, “low polyreactivity”; under “QVQLVESGGGLVQAGGSLRLSCAASGSIFYSYAMGWYRQAPGKDRELVARITSSTGRTYYADSVKGRFTISRDNAKNTVYLQMNSLKPEDTAVYYCAARSASRSMDYWGQGTQVTVSS”, “high polyreactivity”.
Under “QVQLVESGGGLVQAGGSLRLSCAASGRIFRYYAMGWYRQAPGKERELVASISSGGSTNYADSVKGRFTISRDNAKNTVYLQMNSLKPEDTAVYYCATVRRSTGGRLYYWGQGTQVTVSS” stands “high polyreactivity”.
On to “QVQRVESGGGLVQAGGSLRLSCAASGSIFYWYAMGWNIQAPGEEREFVAAITWSGGSTYYADSVKGRFTISRDNAKNTVYLQMNSLQPEDTAVYSCAAQGRRYGYGDFYYWGQGSQVTVSS”, for which the “polyreactivity (PSR sort gate)” value was “high polyreactivity”.
Under “QVQLVESVGGLDQAGGSLRLSCAASGSTFRYYVMGWYRQAPGKERELVAGITRGGSTNYADSVKGRFTISRENAKNTVYLQMNSLKPEDTAVYYCASRGGWKRPFGYQLQYDYWGQGTQLTVSS” stands “high polyreactivity”.
With “QVQLVESGGGLVQAGGSLRLSSAASGFTLGYYAMGWYRQAPGKEREMVAAIRSSGTRTYYADSVKGRFTISRDNAKYTVYLLMNSLKPEDTAVYYCAARTPSYEMDYWGQGTQVTVSS” the entry was “high polyreactivity”.
Under “QVQLVESGGGLVQAGGSLRLTCAASGRTFTIYAMGWYRQAPGKERELVAAISSSSGSTYYADSVKGRFPISRDNAKNTVYLQKNSLKPEDTAVYYCAVKLSGQAAQRRYDYWGQGTQVTVSS” stands “high polyreactivity”; under “QVQRVESGGGLVQAGGSLRLSCAASGRTFAPNAMGWYRQAPGKERELVAAITRRTGSTYYADSVKGRFTISRDNAKNTVYLQMNSLKPEDTAVYYCNGRRRTWYGFYYWGQGTQVTVSS”, “high polyreactivity”.
In the case of “QVQLVESGGGLVQAGGSLRLSCAASGSIFVPYAMGWYRQAPGKERELVAAINSGGGTDYADSVKGRFTISRDNAKNTVYLQMNSLKPEDTAVYYCAKSRVAYRGWDHKYYIYDYWGQGTQVTVSS”, the “polyreactivity (PSR sort gate)” value was “low polyreactivity”.
Turning to “QVQLVESGGGLVQAGGSLRLSCAASRFTFVRYAMGWYRQAPGKEREFVASISARGGNTFYADSVKGRFTISRDNAKNTVYLQMNSLKPEDTAVYYCAASRRVGEVSYYYWGQGTQVTVSS”, the “polyreactivity (PSR sort gate)” value was “high polyreactivity”.
Under “QVQLVESGGGLVQAGGSLRLSCAASGSIFTVYAMGWYRQAPGKERELVAAISSSGGTTYYADSVKGRFTISRDNAKNTVYLQMTSLKPEDTAVYYCAAPTHSPYDYWGQGTQVTVSS” stands “low polyreactivity”.
With “QVQLVESGVGLVQPGGSLRLSSAASGSTSLVNAMRRYRQAPGKERELVAAITRGGNTYYADSVKGRFTISRDNAKNTVYLQMNSLKPEDTAVYYCAAEDHSELGQYDYWGQGTQVTVSS” the entry was “low polyreactivity”; with “QVQLVESGGGLVQAGGSLRLSCAASGFIFYTYTRGWSRQAHGKERELVAAISYSGGRTYSADSVKGRFTISRDNAKNTVYLQMNSLKPEDTAVYYCAARRYYNSVANENNYWGQGTQVTVSS”, “high polyreactivity”; with “QVQLVESGGGLVQAGGSLRLSCAASGSTLRPYGMGWYRQAPGKERELVATIRSSSGRTYYADSVKGRFTISRDNAKNTVYLQMNSLKPEDTAVYYCARRYITNIKYDYWGQGTQVTVSS”, “high polyreactivity”.
With “QVQLVESGGGLVHAGGSLRLSCAASGSIFGDYAMGWYRQAPGKERELVAAITRRGSTYYADSVKGRFTISRDNAKNTVYLQMNSLIPEDTAVFYCAKDVYPGRAGRPGIPYPYDYWGQGTQVTVSS” the entry was “low polyreactivity”.
Consider “QVQLVESGGCLVQAGGRLRLICAASGRTFFFNAMGWYRQAPGKERELVAAISRGGSRTFYADSVKGRFTISRDNEKNTVYLQMNSLKPEDNAVYYCNDVAQSGRYDYWGQGTQVTVSS”, for which the “polyreactivity (PSR sort gate)” value is on record as “high polyreactivity”.
On to “QVQLVESGGGLVQAGGSLRLSCAASGRIFSSNAMGWYRQAPGKEREFVAAISWRTGSTYYADSVKGRFTISRDNAKNTVYLQMNSLKPEDTAVYYCAAVYWTFWGTIATRYDYWGQGTQVTVSS”, for which the “polyreactivity (PSR sort gate)” value is given as “high polyreactivity”.
For the sequence “QVQHVESGGGLVQAGGSLRLSCAASGYIFSRYRGWYRQAPGTERELVAAITRGGVSTYYADSVKGRFTISRDNAKNTVYLQMNSLKPEDTAVYYCATGRPVYYVASYDYDYWGQGTQVTVSS”, the “polyreactivity (PSR sort gate)” value was “low polyreactivity”.
With “QVQLVESGRGLVQAGGTLRISFADSGRIFGNYAMGRYRQAPGKERELVAAIPWRGGRTRYADSVKGRFTISRDNAKNTVYLQMNSLKPEDTAVYYCAAPYTSSGPDDYWGQGTQVTVSS” the entry was “high polyreactivity”; with “QVQLVESGGGLVQAGGSLRLSCAASGITFRSYVMGWYRQAPGKEMEFVAVITKSGGSTYYADSVKGRFTISRDNAMNTVYLQMNSLKPEDTAVYYCGAEYARSSRYKISSEMYYWGQGTQVTVSS”, “high polyreactivity”; with “QVQLVESGGGLVQAGGSLRLSCAASGFTTNYYARGWYRQAPGKERELVAAITTGGSTHYADSVKGRFTISRDNAKNTVYLQMNSLKPEDTAVYYCAAGTNRQQQRYFHHGGYYQYNYWGQGTQVTVSS”, “low polyreactivity”.
As for “QVQLVESGGGLVQAGGSLRLSCAASGRIFYTYAMGWYRQAPGKERELVATISRSSSTYYADSVKGRFTISRDNAKNTVYLQMNSLKPEDTAVYYCATRSASQLLDYWGQGTQVTVSS”, the “polyreactivity (PSR sort gate)” value is given as “low polyreactivity”.
With “QVQLVESGGGLVQAGGSLRLSCAASGRTFGVYAMGWYRQAPGKERELVAAISKSDGSTYYADSVKGRFTISRDNAKNTVYLQMNSLKPEDTAVYYCATVTRHQRDTQYDYWGQGTQVTVSS”, the “polyreactivity (PSR sort gate)” value is reported as “low polyreactivity”.
With “QVQLVESGGGLVQAGGSLRLSCAASGSIFKQYAMGWYRQAPGKERELVAAITWRGTGTYYADSVKGRFTISRDNAKNTVYLQMNSLKPEDTAVYYCAAKWYRRTYGYLPYTGIVNYDYWGQGTQVTVSS” the entry was “high polyreactivity”; with “QVQLVESGGGLVQAGGSLRLSCAASGLTLLKNAMGWYRQAPGKEREYADSVKGRFTISRDNAKNTVYLQMNSLKPEDTAVYYCAKDVNGGYFYYQYPAQYYYWGQGTQVTVSS”, “low polyreactivity”; with “QVQLVESGGGLVQAGGSLRLSCAASGSIFADYTMGWYRQAPGKERELVAPINYRDGGTSYADSVKGRFTISRDKANNTVYLQMNSLKPEDTAVYYCTKQVDLSGQWDYWYGYYTYDYWGPGTQVTVSS”, “low polyreactivity”.
With “QVQLVESGGGLVQAGGSLRLSCAASGIIFHRNDMGWYRQAPGKERELVANIRDGGITYADSVKGRFTISRDKAKNTVYLQMNSLKPEDTAVYYCARDDTSPGYGDQSSNAAYYYWGQGTQVTVSS” the entry was “low polyreactivity”.
“QVQLVESGGGLVQAGGSLRLSCAASGSTVYHNAMGRYRQAPGKERELVAAITWSGSRTYYADSVKGRFTISRDNAKNTVYLQMNSLKPEDTAVYYCAARDYWGQGTQVTVSS”: the “polyreactivity (PSR sort gate)” value is “high polyreactivity”.
With “QVQLVESGGGLVQAGGSLRLICAASGRIFITNTMGWYRQAPGKETELVAAISRTGGSTYYADSVKGRFTISRDNAKNTVYLQMNSLKPEDTAVYFCNAVVRGYAQGAGFDYWGQGTQVTVSS” the entry was “high polyreactivity”; with “QVQLVESGGALVQAGGSLRLSCAASGGTFYTYAMGWYRQAPGKERELVATITRRGGSTYYADSVKGRFTISRDNAKNTVYLQMKSLKPEDTAVYYCAARSYISTRPIMGYWGQGTQVTVSS”, “high polyreactivity”; with “QVQLVESGGGLVQAGGSLRLSCAASGGIFAYNVMGWYRQAPGKERELVAAISSAGSTYYADSVKGRFTISRDNAKNTVYLQMNSLKPEDTAVYYCAVRIGLKYDYWGQGTQVTVSS”, “low polyreactivity”.
For “QVQLVESGGGLVQAGGSLRLSCAASGSIFPWYVMGWYRQAPRKERELVASITYRGASTYYADSVKGRFTISRDNAKNTVYLQMNSLKPEDTAVYYCADFRSYYSERHDYGYWGQGTQVTVSS”, the “polyreactivity (PSR sort gate)” value is listed as “low polyreactivity”.
Under “QVQLVESGGGLVQAGGSLRLSCAASGSTFDYYAMGWYRQTPGKERELVAAISWSGGSTYYADSVKGRFTISRDNAKNTVYLQMNSLKPEDTAVYYCAAATNWGGEYWGQGTQVTVSS” stands “high polyreactivity”; under “QVQLVESGGGLVQAGGSLRLSCAASGSTLVYNDMGWYRQAPGKEREFVAAIRSNDGSTYYADSVKGRFTISRDNAKNTVYLQMNSLKAEDTAVYYCNKDVWDGYDWPEFDYWGQGTQVTVSS”, “low polyreactivity”; under “QVQLQESGGGLVQACGSQRLSCAASGSISEGQDMGWYRRAPGKEREFVAGIAPGATTYYADSVKGRFTISRDNAKNTVYLQMNSLKPEDTAVYYCAARSVTETDHDYWGQVTQVTVSS”, “low polyreactivity”.

(Values after the nanobody polyreactivity screen of Harvey et al. (2022).)
